Here are results for 8 molecules from patent US20220056119A1 (Regeneron, published 2022).

Experiment [1] has as its target T1, Activin A (R&D Systems, #338-AC) (human, UniProt P08476 311-426).
T1 construct: Bought protein; also called inhibin-βA dimer; homodimer of two βA subunits
T1 sequence: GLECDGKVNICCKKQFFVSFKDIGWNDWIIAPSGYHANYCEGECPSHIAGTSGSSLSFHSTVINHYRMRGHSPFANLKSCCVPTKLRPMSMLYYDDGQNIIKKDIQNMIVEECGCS
Put plainly: SPR blocking: 5 nM Activin A + 1.88 nM binder over hActRIIB-hFc (Control 4) surface. How it is done:
(§1) The binding signal (RU) was measured at 150 seconds after the start of the injection, and this signal was subtracted by the measured RU value for a negative control reference surface to determine the specific binding signal.

In experiment [2] the target is T1, Activin A (R&D Systems, #338-AC). Put plainly: SPR blocking: 5 nM Activin A + 7.50 nM binder over hActRIIB-hFc (Control 4) surface. On the procedure: as §1
Experiment [3] shares this target. The experiment in a line: SPR blocking: 5 nM Activin A + 30 nM binder over hActRIIB-hFc (Control 4) surface. On the procedure:
as §1

The target is the same in experiment [4]. The experiment in a line: SPR blocking: 5 nM Activin A + 0.94 nM binder over hActRIIB-hFc (Control 4) surface. How it is done:
as §1

The target is the same in experiment [5]. Put plainly: SPR blocking: 5 nM Activin A + 3.75 nM binder over hActRIIB-hFc (Control 4) surface.
For experiment [6] the target is unchanged. The experiment in a line: SPR blocking: 5 nM Activin A + 15 nM binder over hActRIIB-hFc (Control 4) surface. How it is done: as §1
The target is the same in experiment [7]. Put plainly: SPR blocking: 5 nM Activin A + 60 nM binder over hActRIIB-hFc (Control 4) surface. On the procedure: as §1
The target is the same in experiment [8]. The experiment in a line: SPR blocking: 5 nM Activin A + 0.00 nM binder over hActRIIB-hFc (Control 4) surface. On the procedure:
as §1

Another experiment deals with T2, Activin A (human, UniProt P08476 311-426).
T2 sequence: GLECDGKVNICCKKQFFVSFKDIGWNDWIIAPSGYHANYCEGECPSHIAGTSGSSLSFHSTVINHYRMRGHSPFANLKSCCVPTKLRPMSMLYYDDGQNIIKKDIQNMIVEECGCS
Put plainly: cell-based or functional assay.

A further experiment deals with T3, Activin B (human, UniProt P09529 293-407).
T3 chain: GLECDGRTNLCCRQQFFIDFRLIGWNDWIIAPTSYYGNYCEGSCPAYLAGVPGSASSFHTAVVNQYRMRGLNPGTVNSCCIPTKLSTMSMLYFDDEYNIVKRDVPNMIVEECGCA
The experiment in a line: cell-based or functional assay.

B1: H4H10440P2 (antibody, human IgG4, V domains shown)
VH: EVQLVESGGGVVQPGGSLRLSCAASTFTFDDFAMHWVRQAPGKGLEWVSLITGDGGSTYYADPVKGRFTISRDNSKNSLYLQMNSLRTEDTALYYCVKDWWIAARPDYYYYGMDVWGQGTTVTVSS
VL: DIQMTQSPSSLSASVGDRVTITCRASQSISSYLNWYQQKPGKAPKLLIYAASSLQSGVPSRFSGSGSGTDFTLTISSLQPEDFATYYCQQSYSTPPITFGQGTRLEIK
Consider B1, for which the “% bound RU w/ no inhibitor” value in [1] amounted to 58%; in [2], 7%; in experiment [3], 4%; in experiment [4], 79%; in experiment [5] it was 19%; in experiment [6], 4%. The “% bound RU w/ no inhibitor” value in [7] is 4%; in [8], 100%.

B2: H4H10429P (antibody, human IgG4, V domains shown)
VH: QVQLVESGGGVVQPGRSLRLSCVASGFTVSSYGIHWVRQAPGKGLEWVSVIWYDGRNKDYADSVKGRFTISRDNSKNTVYLEMKGLRAEDTALYYCARDKTGDFDSWGQGTLVTVSS
VL: DIQMTQSPSSLSASVGDRVTITCRASQNINSFLSWYQQKPGKAPKFLIYDASSIQSGAPSRFSGSGSGTDFTLTISSLQPEDFATYYCQQSYSSPFTFGQGTKLEIK
In the case of B2, the “% bound RU w/ no inhibitor” value in experiment [1] is 67%; in [2] it was 2%; in experiment [3] it was 2%; in experiment [4], 87%; in experiment [5] it was 19%; in [6], 2%. Moreover, the “% bound RU w/ no inhibitor” value was 3% in experiment [7] and 100% in experiment [8].

B3: H4H10442P2 (antibody, human IgG4, V domains shown)
VH: QVQLQESGPGLVKPSETLSITCTVSGGSFSSHFWTWIRQPPGKGLEWIGYLHYSGGTSYNPSLKSRVIISVDTSKNQFSLKLNSVTAADTAVYYCARARSGITFGGLIVPGSFDIWGQGTMVTVSS
VL: not shown
On to B3, for which the “% bound RU w/ no inhibitor” value in experiment [1] was found to be 106%; in experiment [2], 103%; in experiment [3], 122%; in [4] it was 110%; in experiment [5] it was 88%; in experiment [6] it was 115%. Also, the results for the “% bound RU w/ no inhibitor” value in experiment [7] and in [8] were 124% and 100%, respectively.

B4: H4H10446P2 (antibody, human IgG4, V domains shown)
VH: QVQLQESGPGLVKPSETLSLTCTVSGGSFSSHFWSWIRQPPGKGLEWIGYILYTGGTSFNPSLKSRVSMSVGTSKNQFSLKLSSVTAADTAVYYCARARSGITFTGIIVPGSFDIWGQGTMVTVSS
VL: not shown
notes: also called mAb2
In the case of B4, the “% bound RU w/ no inhibitor” value in experiment [1] amounted to 105%; in experiment [2], 95%; in [3], 89%; in experiment [4], 107%; in experiment [5], 76%; in [6] it was 115%. For the same molecule, the “% bound RU w/ no inhibitor” value in [7] came out at 129%; in experiment [8] it was 100%.

B5: H4H10436P2 (antibody, human IgG4, V domains shown)
VH: QVQLVESGGGVVQPGRSLRLTCVASGFTVSSYGMHWVRQAPGKGLEWVAVMFYDESKKYYADSVKGRFTISRDNSKNTLYLQMNSLRVEDTAVYYCARDEQLDFEYWGQGTLVTVSS
VL: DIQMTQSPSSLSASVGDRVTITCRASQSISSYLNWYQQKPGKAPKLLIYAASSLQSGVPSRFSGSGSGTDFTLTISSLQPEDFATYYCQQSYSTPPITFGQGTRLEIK
B5: the “% bound RU w/ no inhibitor” value was 60% in experiment [1]; 3% in experiment [2]; 3% in experiment [3]; 80% in [4]; 19% in experiment [5]; 2% in experiment [6]. For the same molecule, the “% bound RU w/ no inhibitor” value amounted to 4% in experiment [7] and 100% in experiment [8].

B6: H4H10423P (antibody, human IgG4, V domains shown)
VH: QVQLQQSGPGLLKPSQTLSLTCAISGDSVSSNSAAWSWIRQSPSRGLEWLGRTYYRANWFNDYALSVKSRITINPVTSTNHFSLQLHSVTPEDTAVYYCAREGALGYYFDSWGQGTLVTVSS
VL: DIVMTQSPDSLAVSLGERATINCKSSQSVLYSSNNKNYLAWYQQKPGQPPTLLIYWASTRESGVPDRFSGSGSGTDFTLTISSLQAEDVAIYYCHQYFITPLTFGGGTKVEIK
Regarding B6, the “% bound RU w/ no inhibitor” value in experiment [1] was determined as 78%; in [2], 42%; in experiment [3] it was 41%; in experiment [4] it was 93%; in [5], 47%; in experiment [6] it was 42%. Besides, the “% bound RU w/ no inhibitor” value in [7] was determined as 41%; in experiment [8], 100%.

B7: H4H10433P2 (antibody, human IgG4, V domains shown)
VH: EVQLVESGGGLVQAGRSLRLSCEASGFTFDDYGMHWVRQGPGKGLEWVSGISWNSGNIDYADSVKGRFTISRDNAKTSLYLQMNSLKTDDTALYFCAKDAVGFNWNYFLFDYWGQGTLVTVSS
VL: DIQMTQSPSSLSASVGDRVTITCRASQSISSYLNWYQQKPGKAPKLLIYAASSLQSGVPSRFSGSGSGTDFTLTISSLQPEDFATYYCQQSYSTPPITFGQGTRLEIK
With B7, the “IC50, inhibition of 100 pM Activin A in A204/CAGAx12-Luc luciferase bioassay” value with Activin A stood at 1.5e-10 M. For the same molecule, the “IC50, inhibition of 50 pM Activin B in A204/CAGAx12-Luc luciferase bioassay” value in the experiment with Activin B was found to be 1e-07 M.

B8: H4H10430P (antibody, human IgG4, V domains shown)
VH: EVQLVESGGGLVQPGRSLRLSCKASGFAFDDFAMHWVRQAPGKGLEWVSGIVWNSGDIGYADSVKGRFTISRDNAKNSLYLQLNSLRTEDTALYFCVKDMVRGLMGFNYYGMDVWGQGTTVTVSS
VL: EIVLTQSPATLSLSPGERATLSCRASQTISTYLVWYRQRPGQAPSLLIYDASNRATDIPARFSGSGSGTDFTLTISSLEPEDFAVYYCQQRSNWPITFGQGTRLEIK
notes: also called mAb1
B8: the “% bound RU w/ no inhibitor” value in experiment [1] was 62%; in [2] it was 4%; in experiment [3] it was 3%; in experiment [4], 80%; in experiment [5] it was 20%; in experiment [6] it was 3%. Moreover, the “% bound RU w/ no inhibitor” value in experiment [7] amounted to 3%; in experiment [8], 100%.
